In IntAct's records for PubMed 30285739:

B1: WW domain binding protein VOPP1 (Homo sapiens), Q96AW1 (parent)
chain: MRRQPAKVAALLLGLLLECTEAKKHCWYFEGLYPTYYICRSYEDCCGSRCCVRALSIQRLWYFWFLLMMGVLFCCGAGFFIRRRMYPPPLIEEPAFNVSYTRQPPNPGPGAQQPGPPYYTDPGGPGMNPVGNSMAMAFQVPPNSPQGSVACPPPPAYCNTPPPPYEQVVKAK
partner: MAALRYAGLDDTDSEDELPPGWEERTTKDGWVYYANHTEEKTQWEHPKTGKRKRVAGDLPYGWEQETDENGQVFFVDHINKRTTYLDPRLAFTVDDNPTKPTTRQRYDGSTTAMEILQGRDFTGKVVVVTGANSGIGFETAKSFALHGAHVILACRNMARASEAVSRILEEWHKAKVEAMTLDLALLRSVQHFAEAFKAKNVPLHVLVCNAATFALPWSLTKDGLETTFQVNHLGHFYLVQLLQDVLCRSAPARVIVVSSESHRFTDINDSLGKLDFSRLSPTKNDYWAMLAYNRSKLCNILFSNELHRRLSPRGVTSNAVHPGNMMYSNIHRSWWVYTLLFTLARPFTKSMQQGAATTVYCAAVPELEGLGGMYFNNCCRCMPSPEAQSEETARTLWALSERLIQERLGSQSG
B2: WW domain-containing oxidoreductase (Homo sapiens), Q9NZC7 (parent)
chain: B1 partner
partner: B1 chain

Variants of: B1
Settings: with wwox_human WWOX, Q9NZC7

Variant	effect of a mutation on the interaction
Y165A	decreasing interaction strength
Y119A	with no effect
Y157A	decreasing interaction strength

Variants of: B1
Settings: with wwox_human WWOX

Variant	effect of a mutation on the interaction
Y165A	disrupting interaction strength

Variants of: B2
Settings: with vopp1_human VOPP1, Q96AW1

Variant	effect of a mutation on the interaction
Y33R	disrupting interaction strength
